Patent US20210230266A1 (SINGAPORE HEALTH SERVICES PTE, published 2021)

T1: Human IL-11 (human, UniProt P20809 22-199)
T1 construct: Recombinant human IL-11 (GenScript Cat. No. Z03108-1) or IL-11 secreted by human cells; the mature form is said to have 178 residues; also called recombinant human IL-11; endogenously produced IL-11
T1 sequence: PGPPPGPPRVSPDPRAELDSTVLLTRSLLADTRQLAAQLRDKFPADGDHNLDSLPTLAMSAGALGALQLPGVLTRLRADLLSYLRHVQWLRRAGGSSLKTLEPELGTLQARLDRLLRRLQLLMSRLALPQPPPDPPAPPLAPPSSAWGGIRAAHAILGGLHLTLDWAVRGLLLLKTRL

T2: Mouse IL-11 (mouse, UniProt P47873 22-199, limits assumed)
T2 construct: also called murine IL-11; recombinant murine IL-11
T2 sequence (looked up): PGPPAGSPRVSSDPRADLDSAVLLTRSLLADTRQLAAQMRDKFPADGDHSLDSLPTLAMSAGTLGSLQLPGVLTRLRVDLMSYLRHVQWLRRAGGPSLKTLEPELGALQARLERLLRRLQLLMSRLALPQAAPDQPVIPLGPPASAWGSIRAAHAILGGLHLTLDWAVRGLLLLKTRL

B1: YU100-E08 (antibody)
chain: QVQLVQSGGGVVQPGRSLRLSCAASGFTFSSYAMHWVRQAPGKGLEWVAVISYDGSNKYYADSVKGRFTISRDNSKNTLYLQMNSLRAEDTAVYYCARIMGYDYGDYDVVDYWGQGTLVTVSSGSASAPKLEEGEFSEARVQSALTQPRSVSGSPGQSVTISCTGTSSDVGGYNYVSWYQQHPGKAPKLMIYDVSRRPSGVPDRFSGSKSGNTASLTISGLQAEDEADYYCCSYAGNYTWMFGGGTKLTVL
B2: YU100-E10 (antibody)
chain: QVQLVQSGGGVVQPGRSLRLSCAASGFTFSSYGMHWVRQAPGKGLEWVAVISYDGSNKYYADSVKGRFTISRDNSKNTLYLQMNSLRAEDTAVYYCAKIGATDPLDYWGQGTLVTVSSGSASAPKLEEGEFSEARVQSALTQPRSVSGSPGQSVTISCTGTSSDVGGYNYVSWYQQHPGKAPKLMIFDVSQRPSGVPDRFSASKSGNTASLTISGLQAEDEADYYCCSYAGSYTWVFGGGTKLTVL
B3: YU100-F07 (antibody)
chain: QVQLVESGGGVVQPGRSLRLSCAASGFTFSSYAMHWVRQAPGKGLEWVAVISYDGSNKYYADSVKGRFTISRDNSKNTLYLQMNSLRAEDTAVYYCARIMGYDYGDYDVVDYWGQGTLVTVSSGSASAPKLEEGEFSEARVQSALTQPRSVSVSPGQSVTISCTGTSSDVGGYEYVSWYQQHPGKAPKLMIYDVTKRPSGVPDRFSGSKSGNTASLTISGLQGEDAADYYCCSYAGSYTWVFGGGTTVTVL
B4: YU100-F11 (antibody, V domains shown)
VH: QVQLVESGGGVVQPGRSLRLSCAASGFTFSSYGMHWVRQAPGKGLEWVAVISYDGSNKYYADSVKGRFTISRDNSKNTLYLQMNSLRAEDTAVYYCAKIGATDPLDYWGQGTLVTVSS
VL: QSALTQPASVSGSPGQSITISCTGSSSDVAGYNYVSWYQQHPGKAPKLMIYDVTKRPSGVPDRFSGSKSGNTASLTISGLQAEDEADYYCCSYAGSYTWVFGGGTQLTVLG
notes: light chain-shuffled human anti-IL-11 clone
B5: YU100-G10 (antibody)
chain: QVQLVQSGGGVVQPGRSLRLSCAASGFTFSSYGMHWVRQAPGKGLEWVAVISYDGSNKYYADSVKGRFTISRDNSKNTLYLQMNSLRAEDTAVYYCAKIGATDPLDYWGQGTLVTVSSGSASAPKLEEGEFSEARVQSALTQPASVSGSLGQSITMSCTGTRRDVGGYDFVSWYQQYPGKAPKLIIYDVSNRPSGVSNRFTGSKSGNTASLTISGLQAEDEADYYCCSYAGTYTWVFGGGTKVTVL
B6: YU100-E07 (antibody)
chain: QVQLQESGGGVVQPGRSLRLSCAASGFTFSSYGMHWVRQAPGKGLEWVAVISYDGSNRYYADSVKGRFAISRDNSKNTLYLQMNSLRAEDTAVYYCAKIGATDPLDYWGQGTLVTVSSGSASAPKLEEGEFSEARVQSALTQPRSVSGSPGQSVTISCTGTSSDVGGYDYVSWYQQHPGKAPELMIYDVTKRPSGVADRFSGSKSGNTASLTISGLQAEDEADYYCCSYAGRYTWVFGGGTKLTVL
B7: YU100-E09 (antibody)
chain: QVQLVESGGGVVQPGRSLRLSCAASGFTFSSYAMHWVRQAPGKGLEWVAVISYDGSNKYYADSVKGRFTISRDNSKNTLYLQMNSLRAEDTAVYYCARIMGYDYGDYDVVDYWGQGTLVTVSSGSASAPKLEEGEFSEARVQSALTQPRSVSGSPGQSVTISCTGTSSDVGDYDYVSWYQQHPGKAPKLIIYDVTKRPSGIPDRFSGSKSGNTASLTISGLQAEDEADYYCCSYAGSYTWVFGRGTKLTVL
B8: YU112-G01 (antibody)
chain: QVQLVESGGGVVQPGRSLRLSCAASGFTFSSYGMHWVRQAPGKGLEWVAVISYDGSNKYYADSVKGRFTISRDNSKNTLYLQMNSLRAEDTAVYYCAKLSGPNGVDYWGQGTLVTVSSGSASAPKLEEGEFSEARVQSALTQPRSVSGSPGQSVTISCTGTISDVGGYNYVSWYQQHPGKAPKLMIYDVTKRPSGVPDRFSGSKSGNTASLTISGLQAEDEAGYYCSSYAGSYTWVFGGGTELTVL
B9: YU100-B09 (antibody, V domains shown)
VH: QVQLVQSGGGVVQPGRSLRLSCAASGFTFSSYGMHWVRQAPGKGLEWVAVISYDGSNKYYADSVKGRFTISRDNSKNTLYLQMNSLRAEDTAVYYCAKIGATDPLDYWGQGTLVTVSS
B10: YU100-D07 (antibody)
chain: QVQLVESGGGVVQPGRSLRLSCAASGFTFSSYAMHWVRQAPGKGLEWVAVISYDGSNKYYADSVKGRLTISRDNSKNTLYLQMNSLRAEDTAVYYCARIMGYDYGDYDVVDYWGQGTLVTVSSGSASAPKLEEGEFSEARVQSALTQPRSVSGSPGQSVTISCTGTSGDVGTYDYVSWYQQHPGKAPKLMIYDVSKRPSGVPDRFSGSKSGNTASLTISGLQAEDEADYYCNSYAGSYTWVFGGGTKLTVLGQPKTAPSVTLFPPSS
B11: YU100-F05 (antibody)
chain: QVQLQQSGGGVVQPGRSLRLSCAASGFTFSSYGMHWVRQAPGKGLEWVAVISYDGSNKYYADSVKGRFTISRDNSKNTLYLQMNSLRAEDTAVYYCAKIGATDPLDYWGQGTLVTVSSGSASAPKLEEGEFSEARVQAVLTQPASVSGSPGQSITISCTGTSSDIGGYNYVSWYQQHPGTAPKLMIYDVSSRPSGVSNRFSGSKSGNTASLTISGLQAEDEADYYCCSYAGSYTWVFGGGTKMTVL
B12: YU100-F06 (antibody)
chain: QVQLVESGGGVVQPGRSLRLSCAASGFTFSSYGMHWVRQAPGKGLEWVAVISYDGSNKYYADSVKGRFTISRDNSKNTLYLQMNSLRAEDTAVYYCARIMGYDYGDYDVVDYWGQGTLVTVSSGSASAPKLEEGEFSEARVQSALTQPRSVSGSPGQSVTISCTGSSSDVGGYNFVSWYRQHPGEAPKLVIFDVNKRPSGVPDRFSGSKSGNTASLTISGLQTEDEADYFCCSYAGGYTWVFGGGTKVTVV
B13: YU100-G11 (antibody)
chain: QVQLVESGGGVVQPGRSLRLSCAASGFTFSSYGMHWVRQAPGKGLEWVAVISYDGSNKYYADSVKGRFTISRDNSKNTLYLQMNSLRAEDTAVYYCARIMGYDYGDYDVVDYWGQGTLVTVSSGSASAPKLEEGEFSEARVQSALTQPRSVSGSPGQSVTISCTGTSSDVGGYNYVSWYQQHPGKAPKLTLYDVGKRPSGVPDRFSGSKSGNTASLTISGLQAEDEADYYCCSYAGGYTWVFGGGTKVTVV
B14: YU112-C09 (antibody)
chain: QVQLVQSGGGVVQPGRSLRLSCAASGFTFGSYGMHWVRQAPGKGLEWVAVISYDGSNKYYADSVKGRFTISRDNSKNTLYLQMNSLRAEDTAVYYCAKGSYYFDYWGQGTLVTVSSGSASAPKLEEGEFSEARVETTLTQSPATLSVSPGERATLSCRASQSFSSSYLAWYQQKPGQAPRLLIYGASRRAPGIPDRFSGSGSGTDFSLTISRLEPEDFAVYYCQQSSTSPTWAFGRGTKVEVK

Experiments:
[1] = target: T1, Human IL-11; experiment: ELISA
Procedure: (§1) The soluble scFv were produced by recombinant expression in E. coli, and analysed for their ability to bind to human IL-11 and murine IL-11 by ELISA. Briefly, the respective antigen was coated to wells of an ELISA plate, the cell culture supernatant containing the respective scFv was added at a 1:2 dilution, and binding was detected.

[2] = target: T2, Mouse IL-11; experiment: ELISA
Procedure: as §1

[3] = target: T1, Human IL-11; experiment: cell-based or functional assay
[4] = target: T1, Human IL-11; experiment: ELISA on coated recombinant human IL-11 (100 ng/well), scFv-Fc
Procedure: The light chain shuffled anti-IL-11 antibodies were analysed to determine the EC50 for binding to human IL-11 by ELISA according to standard methods. Briefly, wells of microtiter plates were coated with recombinant human IL-11 (100 ng/well), scFv-Fc comprising the VH and VL domains of the clones were added in a dilution series and antibody binding was detected using a polyclonal antibody detection system.

Binder | hIL11 - average signal [1] | mIL11 - average signal [2] | MMP2 production, Experiment 1 (human atrial fibroblasts + TGFB1) [3] | MMP2 production, Experiment 2 (human atrial fibroblasts + TGFB1) [3] | EC50 [4]
B1 | 0.214 | 0.251 | 48.2 ng/mL | 59.7 ng/mL | 0.032 µg/mL
B2 | 0.338 | 0.297 | 56.1 ng/mL | 47 ng/mL | 0.033 µg/mL
B3 | 0.172 | 0.148 | 53.1 ng/mL | 46.6 ng/mL | 0.041 µg/mL
B4 | 0.319 | 0.395 | 44.5 ng/mL | 37.6 ng/mL | 0.027 µg/mL
B5 | 0.262 | 0.404 | 54 ng/mL | 45.4 ng/mL | 0.034 µg/mL
B6 | 0.193 | 0.247 | 52.1 ng/mL | 46.5 ng/mL | 0.023 µg/mL
B7 | 0.224 | 0.335 | 51.7 ng/mL | 44.4 ng/mL | 0.019 µg/mL
B8 | 0.528 | 0.794 | 47.6 ng/mL | 43.8 ng/mL | –
B9 | 0.21 | 0.293 | – | – | –
B10 | 0.246 | 0.322 | – | – | –
B11 | 0.304 | 0.542 | – | – | –
B12 | 0.16 | 0.481 | – | – | –
B13 | 0.498 | 0.507 | – | – | –
B14 | 0.593 | 0.898 | – | – | –
